Test results published in paper PMC6879534, “Structural basis for DNA unwinding at forked dsDNA by two coordinating Pif1 helicases” (Nature Communications, 2019).
pKd: −log10 of the molar value.

Tests used:
[1] = test system: BaPif1; settings: ssDNA-stimulated ATPase
[2] = target: BaPif1 (Bacteroides fragilis, UniProt Z9XEH3VG65); settings: ssDNA-stimulated ATPase
[3] = target: BaPif1 E323A/K405A (Bacteroides sp (abstract); Bacterioides fragilis (methods))
[4] = target: BaPif1 F379A (Bacteroides fragilis (title/abstract: Bacteroides sp)) (UniProt A0A373G551); assay: fluorescence polarization; settings: Fluorescence polarization: 2.5 nM T15-3'F, buffer and temperature not in the material; crystals: 80 mM NaCl, 40 mM sodium cacodylate pH 6.0, 35% MPD, 12 mM …
[5] = target: BaPif1 H236A (Bacteroides fragilis (title/abstract: Bacteroides sp)) (UniProt A0A373G551); assay: fluorescence polarization; settings: Fluorescence polarization: 2.5 nM T15-3'F, buffer and temperature not in the material; crystals: 80 mM NaCl, 40 mM sodium cacodylate pH 6.0, 35% MPD, 12 mM …
[6] = target: BaPif1 wild type (Bacteroides fragilis (title/abstract: Bacteroides sp)) (UniProt A0A373G551); assay: fluorescence polarization; settings: Fluorescence polarization: 2.5 nM T15-3'F, buffer and temperature not in the material; crystals: 80 mM NaCl, 40 mM sodium cacodylate pH 6.0, 35% MPD, 12 mM …

Chain of BaPif1 (5FHD_1 entry or part of it E323K): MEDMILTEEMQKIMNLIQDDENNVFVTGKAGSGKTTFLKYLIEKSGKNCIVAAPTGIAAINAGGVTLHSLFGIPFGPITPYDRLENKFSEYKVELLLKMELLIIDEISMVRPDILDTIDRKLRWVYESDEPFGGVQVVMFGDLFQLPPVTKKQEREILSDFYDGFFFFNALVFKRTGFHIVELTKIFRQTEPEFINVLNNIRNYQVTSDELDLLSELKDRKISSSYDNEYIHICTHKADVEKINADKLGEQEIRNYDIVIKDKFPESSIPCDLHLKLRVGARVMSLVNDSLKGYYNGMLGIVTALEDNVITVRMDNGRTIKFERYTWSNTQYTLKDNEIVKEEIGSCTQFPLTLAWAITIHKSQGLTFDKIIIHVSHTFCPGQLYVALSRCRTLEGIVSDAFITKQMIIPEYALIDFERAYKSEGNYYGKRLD

Nc1ncnc2c1ncn2[C@@H]1O[C@H](COP(=O)(O)OP(=O)(O)OP(=O)(O)O)[C@@H](O)[C@H]1O [ATP]
ATP hydrolysis rate [1]: The rates of ATP hydrolysis by both the E323A/K405A and E323K variants
ATP hydrolysis rate [2]: only slightly increased relative to the wild type enzyme

BaPif1 E323A/K405A (enzyme)
rate of unwinding of the leading duplex (rapid chemical quench flow, single turnover) [3]: 33 s⁻¹
rate of unwinding of the parental duplex (rapid chemical quench flow, single turnover) [3]: 31 s⁻¹

TTTTTTTTTTTTTTT [T15-3'F]
pKd [4]: 6.60
pKd [5]: 6.70
pKd [6]: 7.13
